Laboratory results from paper doi:10.1101/2020.11.17.387829v1.
Read-outs that look alike come from different tables or passages of the source.

Substrate: O=[N+]([O-])c1ccc(O[C@@H]2O[C@H](CO)[C@@H](O)[C@H](O)[C@H]2O)cc1
Test: purified protein
[1] = average of two wild-type replicates (WT-1 2.4 mM, WT-2 5.3 ± 0.4 mM)
[2] = poorly determined fit: large printed errors
[3] = error exceeds the value, nearly inactive

B1: β-glucosidase B (BglB) (Paenibacillus polymyxa) (protein)
chain: MSENTFIFPATFMWGTSTSSYQIEGGTDEGGRTPSIWDTFCQIPGKVIGGDCGDVACDHFHHFKEDVQLMKQLGFLHYRFSVAWPRIMPAAGIINEEGLLFYEHLLDEIELAGLIPMLTLYHWDLPQWIEDEGGWTQRETIQHFKTYASVIMDRFGERINWWNTINEPYCASILGYGTGEHAPGHENWREAFTAAHHILMCHGIASNLHKEKGLTGKIGITLNMEHVDAASERPEDVAAAIRRDGFINRWFAEPLFNGKYPEDMVEWYGTYLNGLDFVQPGDMELIQQPGDFLGINYYTRSIIRSTNDASLLQVEQVHMEEPVTDMGWEIHPESFYKLLTRIEKDFSKGLPILITENGAAMRDELVNGQIEDTGRHGYIEEHLKACHRFIEEGGQLKGYFVWSFLDNFEWAWGYSKRFGIVHINYETQERTPKQSALWFKQMMAKNGF
Km [1]: 3.9 ± 0.3 mM | kcat [1]: 12.4 ± 0.158 s⁻¹

B2: β-glucosidase B (BglB) (Paenibacillus polymyxa; F418M) (protein)
chain: MSENTFIFPATFMWGTSTSSYQIEGGTDEGGRTPSIWDTFCQIPGKVIGGDCGDVACDHFHHFKEDVQLMKQLGFLHYRFSVAWPRIMPAAGIINEEGLLFYEHLLDEIELAGLIPMLTLYHWDLPQWIEDEGGWTQRETIQHFKTYASVIMDRFGERINWWNTINEPYCASILGYGTGEHAPGHENWREAFTAAHHILMCHGIASNLHKEKGLTGKIGITLNMEHVDAASERPEDVAAAIRRDGFINRWFAEPLFNGKYPEDMVEWYGTYLNGLDFVQPGDMELIQQPGDFLGINYYTRSIIRSTNDASLLQVEQVHMEEPVTDMGWEIHPESFYKLLTRIEKDFSKGLPILITENGAAMRDELVNGQIEDTGRHGYIEEHLKACHRFIEEGGQLKGYFVWSFLDNFEWAWGYSKRMGIVHINYETQERTPKQSALWFKQMMAKNGF
Km [2]: 29.6 ± 20.5 mM | kcat [2]: 0.37 ± 0.572 s⁻¹

B3: β-glucosidase B (BglB) (Paenibacillus polymyxa; M224L) (protein)
chain: MSENTFIFPATFMWGTSTSSYQIEGGTDEGGRTPSIWDTFCQIPGKVIGGDCGDVACDHFHHFKEDVQLMKQLGFLHYRFSVAWPRIMPAAGIINEEGLLFYEHLLDEIELAGLIPMLTLYHWDLPQWIEDEGGWTQRETIQHFKTYASVIMDRFGERINWWNTINEPYCASILGYGTGEHAPGHENWREAFTAAHHILMCHGIASNLHKEKGLTGKIGITLNLEHVDAASERPEDVAAAIRRDGFINRWFAEPLFNGKYPEDMVEWYGTYLNGLDFVQPGDMELIQQPGDFLGINYYTRSIIRSTNDASLLQVEQVHMEEPVTDMGWEIHPESFYKLLTRIEKDFSKGLPILITENGAAMRDELVNGQIEDTGRHGYIEEHLKACHRFIEEGGQLKGYFVWSFLDNFEWAWGYSKRFGIVHINYETQERTPKQSALWFKQMMAKNGF
Km: 4.2 mM | kcat: 10.51 s⁻¹

B4: β-glucosidase B (BglB) (Paenibacillus polymyxa; N163E) (protein)
chain: MSENTFIFPATFMWGTSTSSYQIEGGTDEGGRTPSIWDTFCQIPGKVIGGDCGDVACDHFHHFKEDVQLMKQLGFLHYRFSVAWPRIMPAAGIINEEGLLFYEHLLDEIELAGLIPMLTLYHWDLPQWIEDEGGWTQRETIQHFKTYASVIMDRFGERINWWETINEPYCASILGYGTGEHAPGHENWREAFTAAHHILMCHGIASNLHKEKGLTGKIGITLNMEHVDAASERPEDVAAAIRRDGFINRWFAEPLFNGKYPEDMVEWYGTYLNGLDFVQPGDMELIQQPGDFLGINYYTRSIIRSTNDASLLQVEQVHMEEPVTDMGWEIHPESFYKLLTRIEKDFSKGLPILITENGAAMRDELVNGQIEDTGRHGYIEEHLKACHRFIEEGGQLKGYFVWSFLDNFEWAWGYSKRFGIVHINYETQERTPKQSALWFKQMMAKNGF
Km (error exceeds the value): 21.4 ± 52.4 mM | kcat (error exceeds the value): 1.02 ± 0.483 s⁻¹

B5: β-glucosidase B (BglB) (Paenibacillus polymyxa; H181M) (protein)
chain: MSENTFIFPATFMWGTSTSSYQIEGGTDEGGRTPSIWDTFCQIPGKVIGGDCGDVACDHFHHFKEDVQLMKQLGFLHYRFSVAWPRIMPAAGIINEEGLLFYEHLLDEIELAGLIPMLTLYHWDLPQWIEDEGGWTQRETIQHFKTYASVIMDRFGERINWWNTINEPYCASILGYGTGEMAPGHENWREAFTAAHHILMCHGIASNLHKEKGLTGKIGITLNMEHVDAASERPEDVAAAIRRDGFINRWFAEPLFNGKYPEDMVEWYGTYLNGLDFVQPGDMELIQQPGDFLGINYYTRSIIRSTNDASLLQVEQVHMEEPVTDMGWEIHPESFYKLLTRIEKDFSKGLPILITENGAAMRDELVNGQIEDTGRHGYIEEHLKACHRFIEEGGQLKGYFVWSFLDNFEWAWGYSKRFGIVHINYETQERTPKQSALWFKQMMAKNGF
Km: 5.6 ± 1.9 mM | kcat: 11.98 ± 1.807 s⁻¹

B6: β-glucosidase B (BglB) (Paenibacillus polymyxa; L174M) (protein)
chain: MSENTFIFPATFMWGTSTSSYQIEGGTDEGGRTPSIWDTFCQIPGKVIGGDCGDVACDHFHHFKEDVQLMKQLGFLHYRFSVAWPRIMPAAGIINEEGLLFYEHLLDEIELAGLIPMLTLYHWDLPQWIEDEGGWTQRETIQHFKTYASVIMDRFGERINWWNTINEPYCASIMGYGTGEHAPGHENWREAFTAAHHILMCHGIASNLHKEKGLTGKIGITLNMEHVDAASERPEDVAAAIRRDGFINRWFAEPLFNGKYPEDMVEWYGTYLNGLDFVQPGDMELIQQPGDFLGINYYTRSIIRSTNDASLLQVEQVHMEEPVTDMGWEIHPESFYKLLTRIEKDFSKGLPILITENGAAMRDELVNGQIEDTGRHGYIEEHLKACHRFIEEGGQLKGYFVWSFLDNFEWAWGYSKRFGIVHINYETQERTPKQSALWFKQMMAKNGF
Km: 4.3 ± 0.3 mM | kcat: 14.79 ± 0.405 s⁻¹

B7: β-glucosidase B (BglB) (Paenibacillus polymyxa; E409W) (protein)
chain: MSENTFIFPATFMWGTSTSSYQIEGGTDEGGRTPSIWDTFCQIPGKVIGGDCGDVACDHFHHFKEDVQLMKQLGFLHYRFSVAWPRIMPAAGIINEEGLLFYEHLLDEIELAGLIPMLTLYHWDLPQWIEDEGGWTQRETIQHFKTYASVIMDRFGERINWWNTINEPYCASILGYGTGEHAPGHENWREAFTAAHHILMCHGIASNLHKEKGLTGKIGITLNMEHVDAASERPEDVAAAIRRDGFINRWFAEPLFNGKYPEDMVEWYGTYLNGLDFVQPGDMELIQQPGDFLGINYYTRSIIRSTNDASLLQVEQVHMEEPVTDMGWEIHPESFYKLLTRIEKDFSKGLPILITENGAAMRDELVNGQIEDTGRHGYIEEHLKACHRFIEEGGQLKGYFVWSFLDNFWWAWGYSKRFGIVHINYETQERTPKQSALWFKQMMAKNGF
Km [3]: 2.5 ± 3.1 mM | kcat [3]: 0.0017 ± 0.0017 s⁻¹
